Test results as given in US20260144882A1 (BIO THERA SOLUTIONS, published 2026).

T1: human Nectin-4 extracellular antigen hNectin-4-His (human, UniProt Q96NY8 32-349)
T1 construct: C-terminal 8xHis tag included
T1 sequence: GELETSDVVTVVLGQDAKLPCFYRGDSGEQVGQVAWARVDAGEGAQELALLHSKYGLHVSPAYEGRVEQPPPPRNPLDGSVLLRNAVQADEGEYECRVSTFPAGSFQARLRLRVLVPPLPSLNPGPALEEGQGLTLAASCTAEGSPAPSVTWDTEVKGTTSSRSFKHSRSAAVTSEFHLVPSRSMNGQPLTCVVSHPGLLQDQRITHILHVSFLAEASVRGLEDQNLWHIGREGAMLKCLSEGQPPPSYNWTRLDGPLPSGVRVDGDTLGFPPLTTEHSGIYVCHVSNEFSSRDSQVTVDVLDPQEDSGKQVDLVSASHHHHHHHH

B1: 1G8-2H3 scFv (scFv, V domains shown)
VH: EVQLVESGGGLVQPGGSLRLSCAASGYSFGGYAMSWVRQAPGKGLEWVSRISGIKAYNDYADSVKGRFTISRDNSKNTLYLQMNSLRAEDTAVYYCARQTEDRSYGYDLDYWGQGTLVTVSS
VL: DIQMTQSPSSLSASVGDRVTITCRASQGISSYLAWYQQKPGKAPKLLIYAASSLQSGVPSRFSGSGSGTDFTLTISSLQPEDFATYYCQQHYTTPPTFGQGTKVEIKR
notes: phage clone supernatant
B2: 1G8-2B12 scFv (scFv, V domains shown)
VH: EVQLVESGGGLVQPGGSLRLSCAASGDTFGTSSMSWVRQAPGKGLEWVSRIDTWGWYKFYADSVKGRFTISRDNSKNTLYLQMNSLRAEDTAVYYCARQTEDRSYGYDLDYWGQGTLVTVSS
VL: DIQMTQSPSSLSASVGDRVTITCRASQGISSYLAWYQQKPGKAPKLLIYAASSLQSGVPSRFSGSGSGTDFTLTISSLQPEDFATYYCQQHYTTPPTFGQGTKVEIKR
notes: phage clone supernatant
B3: 10F4-2A9 scFv (scFv, V domains shown)
VH: EVQLVESGGGLVQPGGSLRLSCAASGYTFTDYDMSWVRQAPGKGLEWVSGIKQYKGYTSYADSVKGRFTISRDNSKNTLYLQMNSLRAEDTAVYYCAREYSDVVDYVSVRTPLDYWGQGTLVTVSS
VL: DIQMTQSPSSLSASVGDRVTITCRASQGISSYLAWYQQKPGKAPKLLIYAASSLQSGVPSRFSGSGSGTDFTLTISSLQPEDFATYYCQQHYTTPPTFGQGTKVEIKR
notes: phage clone supernatant
B4: 1G8-2G12 scFv (scFv, V domains shown)
VH: EVQLVESGGGLVQPGGSLRLSCAASGFTFSNNAMSWVRQAPGKGLEWVSAIYASTDGRSYADSVKGRFTISRDNSKNTLYLQMNSLRAEDTAVYYCARQTEDRSYGYDLDYWGQGTLVTVSS
VL: DIQMTQSPSSLSASVGDRVTITCRASQGISSYLAWYQQKPGKAPKLLIYAASSLQSGVPSRFSGSGSGTDFTLTISSLQPEDFATYYCQQHYTTPPTFGQGTKVEIKR
notes: phage clone supernatant
B5: 1G8-1F5 scFv (scFv, V domains shown)
VH: EVQLVESGGGLVQPGGSLRLSCAASGDIFDTYMSWVRQAPGKGLEWVSRIYTDGSSDYADSVKGRFTISRDNSKNTLYLQMNSLRAEDTAVYYCARQTEDRSYGYDLDYWGQGTLVTVSS
VL: DIQMTQSPSSLSASVGDRVTITCRASQGISSYLAWYQQKPGKAPKLLIYAASSLQSGVPSRFSGSGSGTDFTLTISSLQPEDFATYYCQQHYTTPPTFGQGTKVEIKR
notes: phage clone supernatant
B6: 10F4-1C10 scFv (scFv, V domains shown)
VH: EVQLVESGGGLVQPGGSLRLSCAASGYNFGSYDMSWVRQAPGKGLEWVSGIKTYGGNTHYADSVKGRFTISRDNSKNTLYLQMNSLRAEDTAVYYCAREYSDVVDYVSVRTPLDYWGQGTLVTVSS
VL: DIQMTQSPSSLSASVGDRVTITCRASQGISSYLAWYQQKPGKAPKLLIYAASSLQSGVPSRFSGSGSGTDFTLTISSLQPEDFATYYCQQHYTTPPTFGQGTKVEIKR
notes: phage clone supernatant
B7: 10F4-1D3 scFv (scFv, V domains shown)
VH: EVQLVESGGGLVQPGGSLRLSCAASGFSFYDYDMSWVRQAPGKGLEWVSSIIQSGSTAFYADSVKGRFTISRDNSKNTLYLQMNSLRAEDTAVYYCAREYSDVVDYVSVRTPLDYWGQGTLVTVSS
VL: DIQMTQSPSSLSASVGDRVTITCRASQGISSYLAWYQQKPGKAPKLLIYAASSLQSGVPSRFSGSGSGTDFTLTISSLQPEDFATYYCQQHYTTPPTFGQGTKVEIKR
notes: phage clone supernatant
B8: 10F4-1B7 scFv (scFv, V domains shown)
VH: EVQLVESGGGLVQPGGSLRLSCAASGFNFSGFDMSWVRQAPGKGLEWVSGIKAYKSTADYADSVKGRFTISRDNSKNTLYLQMNSLRAEDTAVYYCAREYSDVVDYVSVRTPLDYWGQGTLVTVSS
VL: DIQMTQSPSSLSASVGDRVTITCRASQGISSYLAWYQQKPGKAPKLLIYAASSLQSGVPSRFSGSGSGTDFTLTISSLQPEDFATYYCQQHYTTPPTFGQGTKVEIKR
notes: phage clone supernatant
B9: 10F4-1 scFv (scFv, V domains shown)
VH: EVQLVESGGGLVQPGGSLRLSCAASGDSFTNYWMSWVRQAPGKGLEWVSGISQGGSYAYYADSVKGRFTISRDNSKNTLYLQMNSLRAEDTAVYYCAREYSDVVDYVSVRTPLDYWGQGTLVTVSS
VL: DIQMTQSPSSLSASVGDRVTITCRASQGISSYLAWYQQKPGKAPKLLIYAASSLQSGVPSRFSGSGSGTDFTLTISSLQPEDFATYYCQQHYTTPPTFGQGTKVEIKR
notes: phage clone supernatant
B10: 10F4-1B5 scFv (scFv, V domains shown)
VH: EVQLVESGGGLVQPGGSLRLSCAASGFNFTDYWMSWVRQAPGKGLEWVSSIIGDDSTNHYADSVKGRFTISRDNSKNTLYLQMNSLRAEDTAVYYCAREYSDVVDYVSVRTPLDYWGQGTLVTVSS
VL: DIQMTQSPSSLSASVGDRVTITCRASQGISSYLAWYQQKPGKAPKLLIYAASSLQSGVPSRFSGSGSGTDFTLTISSLQPEDFATYYCQQHYTTPPTFGQGTKVEIKR
notes: phage clone supernatant
B11: 1G8-2H8 scFv (scFv, V domains shown)
VH: EVQLVESGGGLVQPGGSLRLSCAASGDIFGSYAMSWVRQAPGKGLEWVSAISGSGGSTYYADSVKGRFTISRDNSKNTLYLQMNSLRAEDTAVYYCARQTEDRSYGYDLDYWGQGTLVTVSS
VL: DIQMTQSPSSLSASVGDRVTITCRASQGISSYLAWYQQKPGKAPKLLIYAASSLQSGVPSRFSGSGSGTDFTLTISSLQPEDFATYYCQQHYTTPPTFGQGTKVEIKR
notes: phage clone supernatant
B12: 10F4-1B2 scFv (scFv, V domains shown)
VH: EVQLVESGGGLVQPGGSLRLSCAASGFSFGNYWMSWVRQAPGKGLEWVSGIDGHSSYAFYADSVKGRFTISRDNSKNTLYLQMNSLRAEDTAVYYCAREYSDVVDYVSVRTPLDYWGQGTLVTVSS
VL: DIQMTQSPSSLSASVGDRVTITCRASQGISSYLAWYQQKPGKAPKLLIYAASSLQSGVPSRFSGSGSGTDFTLTISSLQPEDFATYYCQQHYTTPPTFGQGTKVEIKR
notes: phage clone supernatant
B13: 10F4-1C3 scFv (scFv, V domains shown)
VH: EVQLVESGGGLVQPGGSLRLSCAASGYSFSDYWMSWVRQAPGKGLEWVSSIKQTGGVKHYADSVKGRFTISRDNSKNTLYLQMNSLRAEDTAVYYCAREYSDVVDYVSVRTPLDYWGQGTLVTVSS
VL: DIQMTQSPSSLSASVGDRVTITCRASQGISSYLAWYQQKPGKAPKLLIYAASSLQSGVPSRFSGSGSGTDFTLTISSLQPEDFATYYCQQHYTTPPTFGQGTKVEIKR
notes: phage clone supernatant
B14: 10F4-1C4 scFv (scFv, V domains shown)
VH: EVQLVESGGGLVQPGGSLRLSCAASGFNFTDYWMSWVRQAPGKGLEWVSSIIGDDSTNHYADSVKGRFTISRDNSKNTLYLQMNSLRAEDTAVYYCAREYSDVVDYVSVRTPLDYWGQGTLVTVSS
VL: DIQMTQSPSSLSASVGDRVTITCRASQGISSYLAWYQQKPGKAPKLLIYAASSLQSGVPSRFSGSGSGTDFTLTISSLQPEDFATYYCQQHYTTPPTFGQGTKVEIKR
notes: phage clone supernatant
B15: 1G8-2H11 scFv (scFv, V domains shown)
VH: EVQLVESGGGLVQPGGSLRLSCAASGFNFDNYAMSWVRQAPGKGLEWVSRIYGWDWYASYADSVKGRFTISRDNSKNTLYLQMNSLRAEDTAVYYCARQTEDRSYGYDLDYWGQGTLVTVSS
VL: DIQMTQSPSSLSASVGDRVTITCRASQGISSYLAWYQQKPGKAPKLLIYAASSLQSGVPSRFSGSGSGTDFTLTISSLQPEDFATYYCQQHYTTPPTFGQGTKVEIKR
notes: phage clone supernatant
B16: 1G8-2H4 scFv (scFv, V domains shown)
VH: EVQLVESGGGLVQPGGSLRLSCAASGDSFTGYAMSWVRQAPGKGLEWVSAISGSGGSTYYADSVKGRFTISRDNSKNTLYLQMNSLRAEDTAVYYCARQTEDRSYGYDLDYWGQGTLVTVSS
VL: DIQMTQSPSSLSASVGDRVTITCRASQGISSYLAWYQQKPGKAPKLLIYAASSLQSGVPSRFSGSGSGTDFTLTISSLQPEDFATYYCQQHYTTPPTFGQGTKVEIKR
notes: phage clone supernatant
B17: 10F4-1A3 scFv (scFv, V domains shown)
VH: EVQLVESGGGLVQPGGSLRLSCAASGYSFSNYDMSWVRQAPGKGLEWVSGIKGWKSYTGYADSVKGRFTISRDNSKNTLYLQMNSLRAEDTAVYYCAREYSDVVDYVSVRTPLDYWGQGTLVTVSS
VL: DIQMTQSPSSLSASVGDRVTITCRASQGISSYLAWYQQKPGKAPKLLIYAASSLQSGVPSRFSGSGSGTDFTLTISSLQPEDFATYYCQQHYTTPPTFGQGTKVEIKR
notes: phage clone supernatant
B18: 1G8-2H10 scFv (scFv, V domains shown)
VH: EVQLVESGGGLVQPGGSLRLSCAASGYNFTNSAMSWVRQAPGKGLEWVSSIYYHSGVPRYADSVKGRFTISRDNSKNTLYLQMNSLRAEDTAVYYCARQTEDRSYGYDLDYWGQGTLVTVSS
VL: DIQMTQSPSSLSASVGDRVTITCRASQGISSYLAWYQQKPGKAPKLLIYAASSLQSGVPSRFSGSGSGTDFTLTISSLQPEDFATYYCQQHYTTPPTFGQGTKVEIKR
notes: phage clone supernatant
B19: 10F4-1A1 scFv (scFv, V domains shown)
VH: EVQLVESGGGLVQPGGSLRLSCAASGFSFDNYDMSWVRQAPGKGLEWVSSIKPGSAYKFYADSVKGRFTISRDNSKNTLYLQMNSLRAEDTAVYYCAREYSDVVDYVSVRTPLDYWGQGTLVTVSS
VL: DIQMTQSPSSLSASVGDRVTITCRASQGISSYLAWYQQKPGKAPKLLIYAASSLQSGVPSRFSGSGSGTDFTLTISSLQPEDFATYYCQQHYTTPPTFGQGTKVEIKR
notes: phage clone supernatant
B20: 1G8-2H9 scFv (scFv, V domains shown)
VH: EVQLVESGGGLVQPGGSLRLSCAASGFNFGNYAMSWVRQAPGKGLEWVSAIYSYFDEPRYADSVKGRFTISRDNSKNTLYLQMNSLRAEDTAVYYCARQTEDRSYGYDLDYWGQGTLVTVSS
VL: DIQMTQSPSSLSASVGDRVTITCRASQGISSYLAWYQQKPGKAPKLLIYAASSLQSGVPSRFSGSGSGTDFTLTISSLQPEDFATYYCQQHYTTPPTFGQGTKVEIKR
notes: phage clone supernatant

Target: T1, human Nectin-4 extracellular antigen …
Assay: ELISA, phage scFv supernatant 1:50

Row | Binder | OD value [OD]
1 | B1 | 1.53
2 | B2 | 1.39
3 | B3 | 1.57
4 | B4 | 1.5
5 | B5 | 1.56
6 | B6 | 1.52
7 | B7 | 1.52
8 | B8 | 1.6
9 | B9 | 1.39
10 | B10 | 1.53
11 | B11 | 1.57
12 | B12 | 1.64
13 | B13 | 1.59
14 | B14 | 1.46
15 | B15 | 1.35
16 | B16 | 1.58
17 | B17 | 1.53
18 | B18 | 1.53
19 | B19 | 1.69
20 | B20 | 1.46
